Here are results for 6 molecules from patent US20110257105A1 (CARA THERAPEUTICS, published 2011).

Square brackets hold non-standard residues; d marks the D form. Ends that are not written are not given here. dAgb = N=C(N)NCC[C@@H](N)C(=O)O; dNle = CCCC[C@@H](N)C(=O)O

To fix the notation:
B1: Compound (52): D-Phe-D-Phe-D-Leu-(D-Lys-GlyLactam)2-D-Leu-D-Phe-D-Phe (peptide)
peptide: [dF][dF][dL][dK]G
modifications: not fully specified (bridges); printed as D-Phe-D-Phe-D-Leu-(D-Lys-GlyLactam)2-D-Leu-D-Phe-D-Phe; also: two chains joined through (D-Lys-Gly lactam)2 linker
B2: Compound (3): D-Phe-D-Phe-D-Nle-D-Arg-D-Pro-OH (peptide)
peptide: [dF][dF][dNle][dR][dP]-OH
modifications: N-terminus assumed
SMILES: CCCC[C@@H](NC(=O)[C@@H](Cc1ccccc1)NC(=O)[C@H](N)Cc1ccccc1)C(=O)N[C@H](CCCNC(=N)N)C(=O)N1CCC[C@@H]1C(=O)O
B3: Compound (51): 1N,4N-bis-(D-Phe-D-Phe-D-Leu-D-Nar)-4-amino-4-carboxylic piperidine (peptide)
peptide: [dF][dF][dL][dAgb]-{4‑amino‑4‑carboxylic piperidine}
modifications: also: two identical chains joined through C-termini to N1 and 4-amino group of piperidine scaffold
B4: Compound (50): 1N,4N-bis-[D-Phe-D-Phe-D-Leu-D-Dap(amidino)]-4-amino-4-carboxylic piperidine (peptide)
peptide: [dF][dF][dL][dDap(amidino)]-{4‑amino‑4‑carboxylic piperidine}
modifications: also: two identical chains joined through C-termini to N1 and 4-amino group of piperidine scaffold
B5: Compound (49): 1N,4N-bis-[D-Phe-D-Phe-D-Leu-(iPr)D-Orn]-4-amino-4-carboxylic-piperidine (peptide)
peptide: [dF][dF][dL][dOrn(iPr)]-{4‑amino‑4‑carboxylic piperidine}
modifications: also: two identical chains joined through C-termini to N1 and 4-amino group of piperidine scaffold

One experiment deals with mouse kappa opioid receptor (mouse) (UniProt P33534). The experiment in a line: cell-based or functional assay.
Chain of mouse kappa opioid receptor (mouse) (P33534 whole entry): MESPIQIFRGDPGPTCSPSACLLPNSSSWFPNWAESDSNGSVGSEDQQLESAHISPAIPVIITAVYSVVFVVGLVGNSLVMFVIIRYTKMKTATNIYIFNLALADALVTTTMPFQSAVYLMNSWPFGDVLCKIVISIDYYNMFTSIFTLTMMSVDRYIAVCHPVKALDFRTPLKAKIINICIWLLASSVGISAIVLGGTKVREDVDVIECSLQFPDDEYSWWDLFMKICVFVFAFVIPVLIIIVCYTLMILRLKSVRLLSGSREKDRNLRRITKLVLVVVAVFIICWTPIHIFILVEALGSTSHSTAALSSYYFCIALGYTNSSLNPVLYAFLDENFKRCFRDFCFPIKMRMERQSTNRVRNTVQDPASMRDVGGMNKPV
With “Compound (39): D-Phe-D-Phe-D-Leu-D-Orn-[eLys(D-Orn-D-Leu-H)]-OH (peptide)”, the EC50 (nM), cAMP inhibition in R1.G1 cells was found to be 67.3 nM and the Efficacy(%), cAMP inhibition in R1.G1 cells stood at 35%.

For B1, the EC50 (nM), cAMP inhibition in R1.G1 cells stood at 13.8 nM and the Efficacy(%), cAMP inhibition in R1.G1 cells is 76%.

In a further experiment the target is mouse kappa opioid receptor (mouse, UniProt P33534 1-380). Description: cell-based or functional assay.
Chain of mouse kappa opioid receptor (P33534 whole entry): as above
Take B2: the “EC50 (nM), cAMP inhibition in R1.G1 cells” value (“EC50 (nM), cAMP inhibition” below) was determined as 9.05 nM and the “Efficacy(%), cAMP inhibition in R1.G1 cells” value (“Efficacy(%), cAMP inhibition” below) was determined as 88%.

B3: the “EC50 (nM), cAMP inhibition” value was 95.8 nM and the “Efficacy(%), cAMP inhibition” value was 60%.

B4: the “EC50 (nM), cAMP inhibition” value worked out at 56.7 nM and the “Efficacy(%), cAMP inhibition” value was found to be 77%.

Consider B5, for which the “EC50 (nM), cAMP inhibition” value amounted to 1.83 nM and the “Efficacy(%), cAMP inhibition” value is 50%.
